Reference: patent publication US20260217779A1 (Chugai, published 2026)

Biological target: T1, human CXCR3 (hCXCR3) on Ba/F3 transfectant cells (human, UniProt P49682 1-368)
T1 sequence: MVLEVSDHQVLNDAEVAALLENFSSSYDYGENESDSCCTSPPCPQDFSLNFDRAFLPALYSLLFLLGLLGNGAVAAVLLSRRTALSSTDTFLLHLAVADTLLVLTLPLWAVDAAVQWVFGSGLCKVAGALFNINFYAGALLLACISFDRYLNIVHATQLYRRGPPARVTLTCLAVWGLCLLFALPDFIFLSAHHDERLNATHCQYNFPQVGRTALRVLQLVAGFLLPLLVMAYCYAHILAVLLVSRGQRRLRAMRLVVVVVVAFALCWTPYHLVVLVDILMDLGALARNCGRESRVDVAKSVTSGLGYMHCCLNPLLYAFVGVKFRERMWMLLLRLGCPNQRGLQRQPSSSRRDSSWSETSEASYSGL
Assay: cell-based or functional assay

B1: hCXCL11.0058-G1T4k.one//VHn-G1T4h.one.H435R (Fc fusion)
chain 1: FYPMFKRGRCLCIGPGVKAVKVADIEKASIMYPSNNCDKIEVIITLKENKGQRCLNPKSKQARLIIKKVERKNFEPKSSDKTHTCPPCPAPELRRGPSVFLFPPKPKDTLMISRTPEVTCVVVDVSHEDPEVKFNWYVDGVEVHNAKTKPREEQYNSTYRVVSVLTVLHQDWLNGKEYKCKVSNKGLPSSIEKTISKAKGQPREPQVCTLPPSREEMTKNQVSLWCLVKGFYPSDIAVEWESNGQPENNYKTTPPVLDSDGSFFLYSKLTVDKSRWQEGNVFSCSVMHEALHNHYTQKSLSLSP
chain 2: EPKSSDKTHTCPPCPAPELRRGPSVFLFPPKPKDTLMISRTPEVTCVVVDVSHEDPEVKFNWYVDGVEVHNAKTKPREEQYNSTYRVVSVLTVLHQDWLNGKEYKCKVSNKGLPSSIEKTISKAKGQPREPQVYTLPPSRCEMTKNQVSLSCAVKGFYPSDIAVEWESNGQPENNYKTTPPVLDSDGSFFLVSKLTVDKSRWQEGNVFSCSVMHEALHNRYTQKSLSLSP
B1 was tested, and the “Activity retention rate at 33 nM” value was 15%, the “Activity retention rate at 100 nM” value was 42% and the “Activity retention rate at 300 nM” value was 84%. For the same binder, the “Luminescence value at 33 nM” value was 1.12e+06, the “Luminescence value at 100 nM” value was 7.07e+06 and the “Luminescence value at 300 nM” value was 1.04e+07.
